As usually defined, the Kd is the equilibrium constant for the complex coming apart. The term stoichiometry N denotes a count of units in the complex or per binding partner.

Square brackets hold non-standard residues; d marks the D form. Ends that are not written are not given here. * marks the point of attachment. FITC = O=C1OC2(c3ccc(O)cc3Oc3cc(O)ccc32)c2ccc(NC(=S)*)cc21; pS = N[C@@H](COP(=O)(O)O)C(=O)O

Here are results for 9 molecules from publication PMC7946963, “Phosphorylation regulates the binding of autophagy receptors to FIP200 Claw domain for selective autophagy initiation” (Nature Communications, 2021).

The labels stand for the following.
B1: S177-phosphorylated Optineurin LIR synthetic peptide (p-Optineurin LIR) (peptide)
peptide: SSED[pS]FVEIRMAE
modifications: also: N-terminal FITC in fluorescence polarisation assay only
notes: source: synthetic peptide, bought: ChinaPeptides (>98% pure)
B2: CCPG1 FIR2 synthetic peptide (residues 99–113) (peptide)
peptide: TASDDSDIVTLEPPK
modifications: also: FITC on N-terminus in fluorescence polarisation assay only
notes: The results speak of a 13-residue peptide; also called un-phosphorylated CCPG1 FIR2; wild-type CCPG1 FIR2; source: synthetic peptide, bought: ChinaPeptides (>98% pure)
B3: FIP200 Claw domain (residues 1490–1594) (domain or fragment, human, UniProt Q8TDY2 1490-1594, looked up)
chain: SRHSEKIAIRDFQVGDLVLIILDERHDNYVLFTVSPTLYFLHSESLPALDLKPGEGASGASRRPWVLGKVMEKEYCQAKKAQNRFKVPLGTKFYRVKAVSWNKKV
notes: 15N-labelled in the NMR titrations; also called RB1CC1; source: E. coli BL21 (DE3), purified (Ni-NTA, size-exclusion chromatography); not shown: Trx (inferred from the cleaved 3C protease site), N-terminal, cleaved; His6, N-terminal, cleaved
B4: Optineurin LIR synthetic peptide (un-phosphorylated) (peptide)
peptide: {FITC}-SSEDSFVEIRMAE
notes: Optineurin, human, LIR region; also called un-phosphorylated Optineurin LIR peptide; source: synthetic peptide, bought: ChinaPeptides (>98% pure)
B5: CCPG1 FIR2 S104E (phosphomimetic mutant, residues 99–113) (domain or fragment, human, UniProt Q9ULG6 99-113, looked up)
chain: TASDDEDIVTLEPPK
notes: CCPG1, human, FIR2, residues 99-113; also called phosphomimetic S104E mutant of CCPG1 FIR2; source: E. coli BL21 (DE3), purified (Ni-NTA, size-exclusion chromatography)
B6: nano-FIP200(1450–1594) (domain or fragment, human, UniProt Q8TDY2 1450-1594, looked up)
chain: HMLSEEKQRIMLLERTLQLKEEENKRLNQRLMSQSMSSVSSRHSEKIAIRDFQVGDLVLIILDERHDNYVLFTVSPTLYFLHSESLPALDLKPGEGASGASRRPWVLGKVMEKEYCQAKKAQNRFKVPLGTKFYRVKAVSWNKKV
notes: FIP200 (RB1CC1), human, residues 1450-1594; the construct of the analytical gel filtration with Optineurin fragments; also called FIP200 Claw domain; source: E. coli BL21 (DE3), purified (Ni-NTA, size-exclusion chromatography)
B7: Optineurin(169–185) S177E (phosphomimetic mutant) (domain or fragment, human, UniProt Q96CV9 169-185, looked up)
chain: NSSGSSEDEFVEIRMAE
notes: also called S177E mutant of Optineurin LIR; source: E. coli BL21 (DE3), purified (Ni-NTA, size-exclusion chromatography)
B8: Optineurin(169–185) S177E/F178Y (domain or fragment, human, UniProt Q96CV9 169-185, looked up)
chain: NSSGSSEDEYVEIRMAE
notes: also called F178 of the S177E mutant of Optineurin LIR replaced by Tyr; source: E. coli BL21 (DE3), purified (Ni-NTA, size-exclusion chromatography)
B9: Optineurin(169–185) S177E/F178W (domain or fragment, human, UniProt Q96CV9 169-185, looked up)
chain: NSSGSSEDEWVEIRMAE
notes: also called F178 of the S177E mutant of Optineurin LIR replaced by Trp; source: E. coli BL21 (DE3), purified (Ni-NTA, size-exclusion chromatography)

Data set [1] has as its target B3. Kind of data set: fluorescence polarisation; FITC-labeled peptide (~0.25 μM) titrated with increasing amounts of protein; 20 mM Tris pH 7.9, 100 mM NaCl, 1 mM DTT, 25 °C; one-site binding model. Conditions: both partners purified.
For another data set, the target named is T1, GABARAP (UniProt O95166 1-117).
T1 construct: GABARAP, one of the six mammalian ATG8 family proteins; construct not described; also called ATG8 family protein; mammalian ATG8 orthologue; source: bacteria (15N-labelled form grown in M9 minimal medium); construct not described
T1 sequence (O95166 whole entry): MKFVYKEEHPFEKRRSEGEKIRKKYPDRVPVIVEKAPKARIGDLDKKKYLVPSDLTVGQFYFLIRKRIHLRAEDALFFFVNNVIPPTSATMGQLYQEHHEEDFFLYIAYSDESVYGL
The data set is described as above. The conditions noted are these: both partners purified.

Data set [2] deals with the molecule itself. Nature of the data set: AUC; sedimentation velocity, 142,250 x g, 20 °C; FIP200(1490–1594) alone, CCPG1 FIR2 S104E alone, and FIP200(1490–1594) mixed with excess CCPG1 FIR2 S104E.
In data set [3] the target is B3. Described as above. Conditions: both partners purified.
Data set [4] has as its target T2, p-Optineurin(33–209), Optineurin(33–209) phosphorylated by TBK1 (human, UniProt Q96CV9 33-209, phosphoserine at 177 (the major site phosphorylated by TBK1, by mass spectrometry)).
T2 construct: S177 is called the major site; other phosphorylated sites are not excluded; source: E. coli BL21 (DE3), purified; phosphorylated in vitro by purified Trx-TBK1(1–674) from Sf9 cells
Kind of data set: SEC; analytical gel filtration of purified proteins and their mixtures; Superose 200 increase 10/300 GL; 20 mM Tris-HCl pH 7.9, 100 mM NaCl, 1 mM DTT. Conditions: both partners purified. Background: Size exclusion chromatography separates by hydrodynamic size, large species first.

The data set “nano-FIP200(1450–1594)” concerns the target B6. The data set is described as above. The conditions noted are these: both partners purified.

T2 sequence (Q96CV9 33-209): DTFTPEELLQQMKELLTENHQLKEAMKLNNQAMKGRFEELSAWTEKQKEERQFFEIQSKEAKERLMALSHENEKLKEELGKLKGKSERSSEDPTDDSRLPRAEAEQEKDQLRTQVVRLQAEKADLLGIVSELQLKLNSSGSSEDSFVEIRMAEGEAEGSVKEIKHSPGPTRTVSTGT

Consider B1, for which, in data set [1], the Kd is roughly 12 µM.

Turning to B2, the binding result in data set [1] is reported as “binds”. This molecule gave a Kd with GABARAP of roughly 27 µM.

In the case of B3, in data set [2], the “stoichiometry N” value is 2.

Consider B4, for which, in data set [1], the Kd is roughly 307 µM.

On to B5, for which the “stoichiometry N” value in data set [3] is 1 CCPG1 FIR2 S104E per FIP200 chain (2:2).

For B6, in data set [4], the binding result was “binds”.

For the molecule B7, the binding result in the data set with nano-FIP200(1450–1594) is listed as “binds”.

B8: the binding result with nano-FIP200(1450–1594) is listed as “binds”.

With B9, the binding result in the data set with nano-FIP200(1450–1594) is “binds”.
